Pro-survival activity data for three molecules are collected here from patent US20070054846A1, “Bcl-w structure and uses therefor” (priority 2002, published 2007).

The experiment relates to FDC-P1 myeloid cells. As to the kind of experiment: Survival assay of cells overexpressing Bcl-w constructs. The experiment is classed as cell-based. Conditions: overexpressed FLAG-tagged protein, IL-3 withdrawal, γ-irradiation or cytotoxic drugs. As for the experimental part: Like its cousins Bcl-2 and Bcl-xL, Bcl-w overexpression protects cells from diverse death stimuli, including cytokine deprivation and γ-irradiation (Gibson et al., 1996).
Survival assays were performed as described previously (O'Connor et al., 1998; Huang et al., 1998; Wilson-Annan et al., 2003; and references therein). Briefly, cells (2−5×10^4 per time point) were left untreated, deprived of their essential growth factor IL-3, exposed to 10Gy γ-irradiation (provided by a ^60Co source), 1-100 nM staurosprorine (Sigma). Cell viability was quantified by flow cytometric analysis of cells excluding 5 μg/mL PI (Sigma) using a FACScan (Becton Dickinson). Each time point was performed in triplicate on at least 3 independent clones of each genotype and the experiments repeated at least 3 times.

B1: Bcl-wΔC5: C-terminal truncated variant of Bcl-w lacking 5 residues (protein)
single chain: MATPASAPDTRALVADFVGYKLRQKGYVCGAGPGEGPAADPLHQAMRAAGDEFETRFRRTFSDLAAQLHVTPGSAQQRFTQVSDELFQGGPNWGRLVAFFVFGAALCAESVNKEMEPLVGQVQEWMVAYLETRLADWIHSSGGWAEFTALYGDGALEEARRLREGNWASVRTVLTGAVALGALVTVGA
Regarding B1, the pro-survival activity entry is given as “behaved like the full-length protein”. In addition, the pro-survival activity entry (listed as ΔC5) is “fully active”.

B2: Bcl-wΔC10: SEQ ID NO:2; Bcl-w derivative lacking the last 10 residues, Ala128 substituted with glutamate (protein)
chain: MATPASAPDTRALVADFVGYKLRQKGYVCGAGPGEGPAADPLHQAMRAAGDEFETRFRRTFSDLAAQLHVTPGSAQQRFTQVSDELFQGGPNWGRLVAFFVFGAALCAESVNKEMEPLVGQVQEWMVEYLETRLADWIHSSGGWAEFTALYGDGALEEARRLREGNWASVRTVLTGAVALGAL
modifications: Bcl-w deltaC10 A128E
notes: Bcl-w derivative lacking the last 10 residues, Ala128 substituted with glutamate
B2: the pro-survival activity result is listed as “biologically inert”.

B3: Bcl-wΔC3: C-terminal truncated variant of Bcl-w lacking 3 residues (protein)
single chain: MATPASAPDTRALVADFVGYKLRQKGYVCGAGPGEGPAADPLHQAMRAAGDEFETRFRRTFSDLAAQLHVTPGSAQQRFTQVSDELFQGGPNWGRLVAFFVFGAALCAESVNKEMEPLVGQVQEWMVAYLETRLADWIHSSGGWAEFTALYGDGALEEARRLREGNWASVRTVLTGAVALGALVTVGAFF
As to B3, the pro-survival activity entry is recorded as “fully active”.
